From patent publication US20130034559A1 (AstraZeneca / MedImmune, published 2013)

Assays:
Assay in all cases: ELISA, biotinylated IgG1-TM on coated ECD
[1] = biological target: T1, extracellular domain of human PD-L2 (R&D Systems, 1224-PL) (human, UniProt Q9BQ51 20-220)
T1 construct: extracellular domain; Bought
T1 sequence (looked up): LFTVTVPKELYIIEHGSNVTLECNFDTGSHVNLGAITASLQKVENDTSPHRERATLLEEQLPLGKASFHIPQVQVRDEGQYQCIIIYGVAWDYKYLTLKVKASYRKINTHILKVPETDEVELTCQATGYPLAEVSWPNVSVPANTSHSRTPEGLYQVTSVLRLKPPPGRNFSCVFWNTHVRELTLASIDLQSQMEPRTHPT
Description: (§1) ELISAs were performed to determine the cross-reactivity of the anti-B7-H1 IgG1-TM antibodies for other immune co-modulatory molecules. […] Murine cross reactivity was also investigated by coating the ECD of murine B7-H1 (R&D Systems, 1019-B7). Biotinylated anti-B7-H1 IgG1-TM diluted at 100 nM in PBS containing 3% dried milk powder, were incubated at room temperature for 2 h to allow binding. Bound biotinylated IgGs were detected with europium N1-labelled streptavidin (Perkin Elmer, 1244-360) at 0.2 ug/mL. […] Primary antibodies were incubated at 5 ug/mL in PBS containing 3% dried milk powder for 2 h at room temperature. Detection was carried out by incubating the secondary antibody anti-mouse IgG Peroxidase conjugate (Sigma, A2554) or anti-rat IgG Peroxidase conjugate (Sigma, A5795) diluted 1:5000 in PBS containing 3% dried milk powder for 1 h at room temperature and subsequent addition of TMB (Sigma, T0440). […] Non-specific binding was determined using wells coated with the IgG1 isotype control at 5 ug/mL. Cross reactivities were calculated at a percent of the specific binding to the antigen relative to human B7-H1.

[2] = biological target: T2, extracellular domain of human B7-H2 (R&D Systems, 165-B7) (human, UniProt O75144 19-256)
T2 construct: extracellular domain; Bought
T2 sequence (looked up): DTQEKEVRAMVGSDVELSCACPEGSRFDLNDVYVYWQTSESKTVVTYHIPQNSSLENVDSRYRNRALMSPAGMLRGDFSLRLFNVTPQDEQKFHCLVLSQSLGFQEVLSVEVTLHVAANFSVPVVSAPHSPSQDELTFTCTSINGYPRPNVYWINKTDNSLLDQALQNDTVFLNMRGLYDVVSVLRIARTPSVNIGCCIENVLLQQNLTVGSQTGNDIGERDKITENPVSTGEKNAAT
Description: as §1

[3] = biological target: T3, extracellular domain of human CD28 (R&D Systems, 342-CD) (human, UniProt P10747 19-152)
T3 construct: extracellular domain; Bought
T3 sequence (P10747 19-152): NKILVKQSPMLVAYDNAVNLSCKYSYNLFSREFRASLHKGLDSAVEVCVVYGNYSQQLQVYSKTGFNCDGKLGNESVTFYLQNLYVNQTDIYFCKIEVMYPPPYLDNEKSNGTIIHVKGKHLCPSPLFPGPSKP
Description: as §1

[4] = biological target: T4, extracellular domain of human CTLA-4 (R&D Systems, 325-CT) (human, UniProt P16410 36-161)
T4 construct: extracellular domain; Bought
T4 sequence (looked up): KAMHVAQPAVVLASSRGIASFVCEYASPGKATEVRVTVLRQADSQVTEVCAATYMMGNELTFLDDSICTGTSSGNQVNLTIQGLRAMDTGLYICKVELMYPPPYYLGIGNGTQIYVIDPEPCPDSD
Description: as §1

Measured: binding result

B1: 2.7A4OPT (antibody, V domains shown)
VH: EVQLVESGGGLVKPGGSLRLSCAASGFTFSTYSMNWVRQAPGKGLEWVSSISSSGDYIYYADSVKGRFTISRDNAKNSLYLQMNSLRAEDTAVYYCARDLVTSMVAFDYWGQGTLVTVSS
VL: SYELTQPPSVSVSPGQTARITCSGDALPQKYVFWYQQKSGQAPVLVIYEDSKRPSGIPERFSGSSSGTMATLTISGAQVEDEADYYCYSTDRSGNHRVFGGGTKLTVL
notes: Germlined variable domains; human IgG1-TM (L234F, L235E, P331S), lambda; also called 2.7A4OPT IgG1-TM
no binding (tested: 100 nM): all assays above
